The values below come from paper doi:10.1101/2022.02.10.479912 (bioRxiv, 2022).

Assay [1] deals with T1, human Interleukin-18 (mature) (human, UniProt Q14116 37-193).
T1 sequence (looked up): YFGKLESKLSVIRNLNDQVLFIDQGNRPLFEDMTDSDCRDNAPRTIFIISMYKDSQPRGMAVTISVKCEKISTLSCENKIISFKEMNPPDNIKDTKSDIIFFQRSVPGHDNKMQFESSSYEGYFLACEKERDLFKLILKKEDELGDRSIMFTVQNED
The experiment in a line: SEC-MALLS.

Assay [2] has as its target T1, human Interleukin-18 (mature). The experiment in a line: ITC. (In general: In ITC the heat of successive injections is recorded.)

B1: human IL-18BP truncated at the N-terminus (residues 63-194), endogenously glycosylated, without Endo H treatment (domain or fragment, UniProt O95998 63-194, looked up)
chain: QCPALEVTWPEVEVPLNGTLSLSCVACSRFPNFSILYWLGNGSFIEHLPGRLWEGSTSRERGSTGTQLCKALVLEQLTPALHSTNFSCVLVDPEQVVQRHVVLAQLWAGLRATLPPTQEALPSSHSSPQQQG
modifications: N-linked Man5GlcNAc2 glycans, not trimmed (no Endo H)
Consider B1, for which the binding result in assay [1] was “binds”.

B2: human IL-18BP truncated at the N-terminus (residues 63-194) treated with Endoglycosidase H (domain or fragment, UniProt O95998 63-194, looked up)
chain: QCPALEVTWPEVEVPLNGTLSLSCVACSRFPNFSILYWLGNGSFIEHLPGRLWEGSTSRERGSTGTQLCKALVLEQLTPALHSTNFSCVLVDPEQVVQRHVVLAQLWAGLRATLPPTQEALPSSHSSPQQQG
modifications: N-glycans trimmed by Endo H; N-Acetylglucosamine (GlcNAc) at Asn79, Asn103 and Asn147 in the crystal structure
For B2, the binding result in assay [2] is listed as “binds”.
